We go through three molecules from patent US20050221478A1, “Control of es cell self renewal and lineage specification, and medium therefor” (University of Edinburgh, priority 2002, published 2005).

The test system of test [1] is ES cells. Nature of the test: Serum-free medium and transient growth factor stimulation: numbers of undifferentiated ES cells. It is filed as cell-based. The settings on record: factor continuously present in LIF and BMP4 medium. The protocol:
ES cells were grown initally in a medium comprising DMEM F12 plus neurobasal medium (ratio 1:1) supplemented with N2-B27. ES cells were plated at very low density, about 1000-10,000 cells on a 3.5 cm diameter plate and grown on in the same medium supplemented with LIF and BMP4. […]
We observed enhanced numbers of undifferentiated ES cells, indicating increased proliferation or increased ES cell survival, or both.
After more (5-6) passages the rank order of efficacy changed to:—

Test [2] relates to ES cells. Nature of the test: Extended passaging of ES cells in serum free, feeder cell free defined culture media. It is filed as cell-based, murine. The settings on record: after multiple passages in serum free medium. From the text:
When using the LIF and BMP4-containing medium of a specific embodiment of the present invention extended passaging of ES cells is possible. In one example, murine ES cells have been maintained for more than 20 passages over a three month period. Cells were passaged every 2-4 days depending on the plating cell density, though occasionally cells were passaged 7-10 days after plating at low density.
In an alternative embodiment, it is an option not to remove the FGF receptor inhibitor. […] ES-cells can be grown in culture for at least 20 passages in. N2B27 medium in the presence of LIF and an FGF inhibitor, in the absence of BMP. If the FGF receptor inhibitor is not removed from the medium, it is preferred that it is a specific inhibitor and has little or no activity on other receptors.
N2B27 (1:1 mixture of DMEM/F12 medium supplemented with modified N2 (25 μg/ml insulin, 100 μg/ml apo-transferrin, 6 ng/ml progesterone, 16 μg/ml putrescine, 30 nM sodium selenite and 50 μg/ml bovine serum albumin) and Neurobasal medium supplemented with B27)
ES cells were cultured in 0.1% gelatin coated dishes in N2B27 medium supplemented with LIF (100 U/ml) and BMP4 (10 ng/ml). For passaging, a standard protein-free cell dissociation buffer was used to dissociate cells.
The plating density of the cells was approximately 1-5×10^4/cm^2. […]

The test system of test [3] is ES cells. Nature of the test: Self-renewal of pluripotent cells with agonists of a receptor of the TGF-β superfamily or FGF receptor inhibitor. It is filed as cell-based.

Turning to “TGFβ: growth factor added to the culture medium at 1-2 ng/ml”, the “effect when continuously present” value in the test with ES cells [1] is given as “progressive differentiation of the ES cells”.

B1: BMP4: bone morphogenetic protein, agonist of a receptor of the TGF-β superfamily (protein, UniProt P12644 293-408, looked up)
Bone morphogenetic protein 4: SPKHHSQRARKKNKNCRRHSLYVDFSDVGWNDWIVAPPGYQAFYCHGDCPFPLADHLNSTNHAIVQTLVNSVNSSIPKACCVPTELSAISMLYLDEYDKVVLKNYQEMVVEGCGCR
Turning to B1, the “differentiation of ES cells in the presence of BMP4 but absence of LIF” value in the test on ES cells [2] is listed as “differentiated into large flat cells of characteristic morphology”. For the same molecule, the “result as agonist of a receptor of the TGF-β superfamily for self-renewal” value with ES cells [3] is reported as “Good results”.

B2: activin A: growth factor added to the culture medium at 5 ng/ml (protein, UniProt P08476 311-426, looked up)
Inhibin beta A chain: GLECDGKVNICCKKQFFVSFKDIGWNDWIIAPSGYHANYCEGECPSHIAGTSGSSLSFHSTVINHYRMRGHSPFANLKSCCVPTKLRPMSMLYYDDGQNIIKKDIQNMIVEECGCS
With B2, the “effect when continuously present” value with ES cells [1] was “progressive differentiation of the ES cells”.
